The series deals with the molecule itself. The series can be described thus: crystal structure.

B1: ligand-binding domain (LBD) of human RXRα (residues 223-462) (domain or fragment)
chain: TSSANEDMPVERILEAELAVEPKTETYVEANMGLNPSSPNDPVTNICQAADKQLFTLVEWAKRIPHFSELPLDDQVILLRAGWNELLIASFSHRSIAVKDGILLATGLHVHRNSAHSAGVGAIFDRVLTELVSKMRDMQMDKTELGCLRAIVLFNPDSKGLSNPAEVEALREKVYASLEAYCKHKYPEQPGRFAKLLLRLPALRSIGLKCLEHLFFFKLIGDTPIDTFLMEMLEAPHQMT
As for B1, the binding result is listed as “binds”.

The record behind these values is article PMC9969416 (Endocrinology, 2023).
